Values quoted from earlier work as cited in article PMC3727077.
Where two headings read alike, the source gives them in different places.

Key:
VEGFR2 (Homo sapiens) = VEGFR2 (Homo sapiens) (UniProt P35968)
α2M (Homo sapiens) = α2M (Homo sapiens) (UniProt P01023)
NRP1 (Homo sapiens) [1] = target: NRP1 (Homo sapiens) (UniProt O14786)
VEGFR1 (Homo sapiens) = VEGFR1 (Homo sapiens) (UniProt P17948)
α2MFAST (Homo sapiens) = α2MFAST (Homo sapiens) (UniProt P01023)
NRP1 (Homo sapiens) [2] = target: NRP1 (Homo sapiens) (UniProt O14786); remark: listed apart in the source

UniProt P35968, sequence (P35968 20-1356): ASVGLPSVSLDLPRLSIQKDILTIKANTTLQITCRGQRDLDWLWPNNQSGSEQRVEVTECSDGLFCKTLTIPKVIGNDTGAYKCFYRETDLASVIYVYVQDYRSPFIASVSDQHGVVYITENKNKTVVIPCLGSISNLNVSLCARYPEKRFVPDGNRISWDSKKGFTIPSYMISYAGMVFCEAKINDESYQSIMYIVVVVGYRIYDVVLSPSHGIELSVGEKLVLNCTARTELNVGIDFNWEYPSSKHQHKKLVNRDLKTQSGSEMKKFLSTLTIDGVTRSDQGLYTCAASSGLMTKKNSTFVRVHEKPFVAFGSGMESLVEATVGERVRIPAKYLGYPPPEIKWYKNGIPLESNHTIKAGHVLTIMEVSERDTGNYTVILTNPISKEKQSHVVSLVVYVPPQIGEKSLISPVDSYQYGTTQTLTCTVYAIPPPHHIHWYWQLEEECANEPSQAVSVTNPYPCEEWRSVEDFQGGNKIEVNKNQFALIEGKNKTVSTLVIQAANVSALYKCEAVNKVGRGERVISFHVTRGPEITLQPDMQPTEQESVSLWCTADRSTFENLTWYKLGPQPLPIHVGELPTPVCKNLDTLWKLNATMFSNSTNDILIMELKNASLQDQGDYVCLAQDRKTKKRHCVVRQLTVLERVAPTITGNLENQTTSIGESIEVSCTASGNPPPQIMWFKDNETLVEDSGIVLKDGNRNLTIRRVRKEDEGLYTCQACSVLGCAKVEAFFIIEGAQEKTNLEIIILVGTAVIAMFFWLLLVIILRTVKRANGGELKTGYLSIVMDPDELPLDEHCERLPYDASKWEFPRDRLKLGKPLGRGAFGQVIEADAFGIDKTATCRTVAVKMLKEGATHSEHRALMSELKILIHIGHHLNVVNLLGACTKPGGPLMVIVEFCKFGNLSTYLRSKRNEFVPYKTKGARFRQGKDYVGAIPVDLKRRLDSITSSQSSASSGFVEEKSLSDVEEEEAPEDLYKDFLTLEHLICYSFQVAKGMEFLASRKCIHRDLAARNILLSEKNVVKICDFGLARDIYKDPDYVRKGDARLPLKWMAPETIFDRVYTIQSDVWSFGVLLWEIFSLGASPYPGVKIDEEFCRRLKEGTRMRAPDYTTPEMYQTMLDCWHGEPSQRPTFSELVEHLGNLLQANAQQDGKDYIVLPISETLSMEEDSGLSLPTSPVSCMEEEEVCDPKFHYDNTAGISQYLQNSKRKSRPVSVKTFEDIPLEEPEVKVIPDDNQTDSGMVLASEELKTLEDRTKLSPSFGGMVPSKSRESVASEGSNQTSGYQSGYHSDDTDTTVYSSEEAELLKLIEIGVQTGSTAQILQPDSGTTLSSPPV

| Kd (VEGFR2 (Homo sapiens)) | Kd (α2M (Homo sapiens)) | Kd (NRP1 (Homo sapiens) [1]) | Kd (VEGFR1 (Homo sapiens)) | Kd (α2MFAST (Homo sapiens)) | Kd (NRP1 (Homo sapiens) [2]) | Substance |
| --- | --- | --- | --- | --- | --- | --- |
| 0.1 nM | 4000 nM | 0.312 nM | 0.033 nM | 420 nM | – | VEGF (from UniProt P15692) |
| – | – | – | – | – | 1.8 nM | sVEGFR1 soluble (from UniProt P17948) |
